The values that follow are results of earlier work, collected in article PMC6070697.

Common to all, as to experiment: kinetics
Common to all, as to conditions: enzyme turning over with acetyl-CoA and an amine substrate

In one data set the target is Glu34 (UniProt position 34, HYYPEEPLTAG).
A further data set deals with Glu47 (UniProt position 82, FFFKDEPLNTF).
The test system of a further data set is Glu26.

As for “Agmatine N-acetyltransferase (Dm-AgmNAT; formerly Dm-AANATL8) (Drosophila melanogaster)”, in the data set with Glu34, the pKa result is on record as “approximately pH 7.5”. For the substance “Arylalkylamine N-acetyltransferase A (Dm-AANATA; dopamine N-acetyltransferase) (Drosophila melanogaster)”, the pKa result with Glu47 is given as “approximately pH 7.5”.

For “Arylalkylamine N-acetyltransferase like 7 (Dm-AANATL7) (Drosophila melanogaster)”, in the data set on Glu26, the pKa entry is listed as “approximately pH 7.5”.
